Source: paper PMC4422687

What follows are substances tested against soluble HA-tagged canine SLAM (UniProt Q95MM9). Conditions: parent: est. 100; read off a plot.

| Substance | percent of parent |
| --- | --- |
| CDV H-wt, full length attachment protein (hemagglutinin) H of canine distemper virus strain A75/17, FLAG-tagged D132A | 98 % to control |
| CDV H-wt, full length attachment protein (hemagglutinin) H of canine distemper virus strain A75/17, FLAG-tagged D135A | 130 % to control |
| CDV H-wt, full length attachment protein (hemagglutinin) H of canine distemper virus strain A75/17, FLAG-tagged E130A | 54 % to control |
| CDV H-wt, full length attachment protein (hemagglutinin) H of canine distemper virus strain A75/17, FLAG-tagged F131A | 93 % to control |
| CDV H-wt, full length attachment protein (hemagglutinin) H of canine distemper virus strain A75/17, FLAG-tagged F133A | 160 % to control |
| CDV H-wt, full length attachment protein (hemagglutinin) H of canine distemper virus strain A75/17, FLAG-tagged H137A | 86 % to control |
| CDV H-wt, full length attachment protein (hemagglutinin) H of canine distemper virus strain A75/17, FLAG-tagged L136A | 70 % to control |
| CDV H-wt, full length attachment protein (hemagglutinin) H of canine distemper virus strain A75/17, FLAG-tagged N126A | 94 % to control |
| CDV H-wt, full length attachment protein (hemagglutinin) H of canine distemper virus strain A75/17, FLAG-tagged N128A | 84 % to control |
| CDV H-wt, full length attachment protein (hemagglutinin) H of canine distemper virus strain A75/17, FLAG-tagged P127A | 61 % to control |
| CDV H-wt, full length attachment protein (hemagglutinin) H of canine distemper virus strain A75/17, FLAG-tagged R129A | 110 % to control |
| CDV H-wt, full length attachment protein (hemagglutinin) H of canine distemper virus strain A75/17, FLAG-tagged R134A | 110 % to control |
| CDV H-wt, full length attachment protein (hemagglutinin) H of canine distemper virus strain A75/17, FLAG-tagged W138A | 98 % to control |
